Experimental findings from patent publication US20230399394A1 (SUNSHINE GUOJIAN PHARMACEUTICAL SHANGHAI, published 2023) are described below.

Test [1] addresses T1, Human IL-33-his (human, UniProt O95760 112-270, biotinylated with EZ-Link NHS-Biotin where used as IL-33-his-biotin).
T1 construct: Used plain (SPR, cell assays) and biotinylated (ELISA); also called IL-33-his-biotin
T1 sequence: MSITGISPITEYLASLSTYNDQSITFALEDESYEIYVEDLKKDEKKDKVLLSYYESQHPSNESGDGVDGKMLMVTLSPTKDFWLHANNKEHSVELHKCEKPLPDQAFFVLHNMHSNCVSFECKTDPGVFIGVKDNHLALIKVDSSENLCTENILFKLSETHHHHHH
Put plainly: ELISA, IL-33-his-biotin on streptavidin plate, anti-human Fc detection. On the procedure:
SA protein was diluted to 2 μg/mL to coat ELISA plate at 100 μL/well overnight at 4° C. The plate was washed with PBST (PBS containing 0.05% Tween20) for 3 times, and blocked with 2% BSA prepared in PBS at 200 μL/well, at room temperature for 2 h. After the plate was washed twice with PBST, IL-33-his-biotin protein was diluted to 1 μg/mL with 1% BSA prepared in PBST, and was added to ELISA plate at 100 μL/well. The plate was incubated at room temperature for 1 h, and each monoclonal antibody was diluted with 1% BSA prepared in PBST in a 3-fold gradient. The highest concentration of antibody was 10 μg/mL, and the antibody was diluted for 12 gradients. Each diluted monoclonal antibody was added to ELISA wells with 100 μL/well, and the plate was incubated at room temperature for 1 h. Each sample was added to duplicate wells in parallel. The plate was washed with PBST for 3 times, and HRP-anti human IgG Fc secondary antibody prepared with PBST was diluted at an appropriate ratio, and was added to ELISA wells at 100 μL/well. The plate was incubated at room temperature for 1 h. After washing with PBST for 3 times, TMB developing solution was added at 100 μL/well. When the development met expectations, 2M H₂SO₄ was added to terminate the chromogenic reaction at 70 μL/well. Each reaction solution was shaken uniformly and OD450 nm was read on a microplate reader. The data was analyzed and EC₅₀ was calculated.
Background: An ELISA detects its analyte on a solid surface through an enzyme-linked reagent.

Test [2] deals with T1, Human IL-33-his. Put plainly: competition ELISA, antibody mixed with IL-33-his-biotin, ST2-Fc on plate; competitor ST2-Fc. As for the experimental part:
(§1) ST2-Fc protein was diluted to 1 μg/mL with ELISA coating solution to coat ELISA plate with 100 μL/well. The plate was placed in a wet box at 4° C. for 16 h for coating. The ELISA plate was washed 3 times with PBST, and then was blocked with 2% BSA prepared in PBS at 200 μL/well at room temperature for 2 h. The plate was washed once with PBST, and was patted dry to remove the excess blocking solution. Each monoclonal antibody was diluted with 1% BSA prepared in PBST in a 3-fold gradient. The highest concentration of antibody was 10 μg/mL, and the antibody was diluted for 11 gradients. The diluted antibody was mixed 1:1 with 10 ng/ml IL-33-his-biotin, and then the mixture was added into the ELISA well at 100 μL/well. The plate was incubated at room temperature for 1 h. Each concentration was added to duplicate wells in parallel (maximum final concentration of antibody was […], final concentration of IL-33-his-biotin was 5 ng/mL). Unbound or non-specifically bound primary antibodies were washed out. According to the instructions of the antibody, HRP labeled streptavidin secondary antibody was diluted to an appropriate concentration with antibody diluent solution, then it was added to ELISA plate with 100 μL/well, and was incubated at room temperature for 1 h. The ELISA plate was washed with PBST for 5 times, and was patted dry on absorbent paper to remove excess liquid. TMB developing solution was added with 100 μL/well for development to an appropriate degree. 2M H₂SO₄ was added with 70 μL/well to terminate development, and the absorbance was measured at 450 nm on a multifunctional microplate reader. The data were analyzed.

Test [3] addresses T1, Human IL-33-his. Put plainly: competition ELISA: antibody mixed with IL-33-his-biotin, added to an ST2-Fc-coated plate, HRP-streptavidin; blocked ligand ST2-Fc. On the procedure: as §1, with “According to the instructions of the antibody, HRP labeled streptavidin secondary antibody was diluted to an appropriate concentration with antibody diluent solution, then it was added to ELISA plate with 100 μL/well, and was incubated at room temperature for 1 h. The ELISA plate was washed with PBST for 5 times, and was patted dry on absorbent paper to remove excess liquid. TMB developing solution was added with 100 μL/well for development to an appropriate degree.” left out

Test [4] concerns the target T1, Human IL-33-his. Put plainly: cell-based or functional assay.
Test [5] deals with T1, Human IL-33-his. Put plainly: indirect ELISA, biotinylated IL-33-his on streptavidin plate. On the procedure:
The binding ability of murine antibody to human IL-33 protein was determined by indirect enzyme-linked immunosorbent assay (ELISA). The specific methods were as follows: The plate was pre-coated with biotin-avidin (SA) which was diluted in coating solution (50 mM carbonate coating buffer, pH 9.6) to 2 μg/ml at 4° C. overnight, then the plate was blocked with 5% skim milk powder at 37° C. for 2 hours and stored at −80° C. for later use. Biotinylated recombinant human IL-33-his protein was diluted to 0.5 μg/ml in coating solution (50 mM carbonate coating buffer, pH 9.6) and was added at 100 μl/well to the pre-coated SA plate, 37° C., 0.5 h. After washing the plate with PBST for 3 times, the antibodies to be tested were diluted by gradient with 1% BSA buffer and added into the blocked plate at 100 μl/well, and incubated at 37° C. for 1 hour. The plate was washed with PBST for 3 times, and the HRP-labeled goat anti-mouse IgG was added and placed at 37° C. for 30 min. After washing the plate with PBST for 3 times, the plate was patted on the absorbent paper to remove residual droplets as far as possible. […] OD values were read at 450 nm on the microplate reader to analyze the binding ability of the antibodies to be tested to the target antigen human IL-33-his.

A further test concerns the target T2, Cynomolgus IL-33-his (cynomolgus, UniProt A0A2K5W3I1 112-269, biotinylated in the ELISA of Example 6).
T2 construct: Bought protein; also called cynomolgus IL-33 protein; Cynomolgus monkeys IL-33
T2 sequence: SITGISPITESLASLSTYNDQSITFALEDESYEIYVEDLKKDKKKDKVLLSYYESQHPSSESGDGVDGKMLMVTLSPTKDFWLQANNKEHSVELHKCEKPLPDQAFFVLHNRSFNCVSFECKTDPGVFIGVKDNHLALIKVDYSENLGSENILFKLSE
Put plainly: indirect ELISA, biotinylated cynomolgus IL-33-his on streptavidin plate. On the procedure:
The binding ability of murine antibody to cynomolgus IL-33 was determined by indirect enzyme-linked immunosorbent assay (ELISA). The specific methods were as follows: The plate was pre-coated by biotin-avidin (SA) which was diluted in coating solution (50 mM carbonate coating buffer, pH 9.6) to 2 μg/ml at 4° C. overnight. The plate was blocked with 5% skim milk powder at 37° C. for 2 hours, and stored at −80° C. for later use. Biotinylated recombinant cynomolgus IL-33-his protein was diluted to 1 μg/ml in coating solution (50 mM carbonate coating buffer, pH 9.6) and was added at 100 μl/well to the pre-coated SA plate for 0.5 h at 37° C. After washing the plate with PBST for 3 times, the antibodies to be tested were diluted by gradient with 1% BSA buffer and added into the blocked plate with 100 μl/well, and incubated at 37° C. for 1 hour. The plate was washed with PBST for 3 times, and the HRP-labeled goat anti-mouse IgG was added and placed at 37° C. for 30 min. After washing the plate with PBST for 3 times, the plate was patted on the absorbent paper to remove residual droplets as far as possible. […] OD values were read at 450 nm on the microplate reader to analyze the binding ability of the antibody to the target antigen cynomolgus IL-33-his.

Test [6] addresses T1, Human IL-33-his. Put plainly: competition ELISA, antibody mixed with IL-33-his-biotin, ST2 on plate; competitor ST2. As for the experimental part:
ST2 is the only receptor for IL-33 that has been discovered so far. As a cytokine, IL-33 exerts its physiological function depending on ST2 signaling pathway, and the blocking activity of antibody can reflect the neutralizing activity thereof. The specific method was as follows: the plate was coated with 2 μg/ml ST2 PBS solution at 4° C. overnight; the plate was washed with PBST for 3 times, then the plated was blocked with 5% skim milk powder at 37° C. for 2 hours; the plate was washed with PBST for 3 times for later use. 20 ng/ml IL-33-his-biotin antigen diluted by 1% BSA was mixed with antibodies to be tested diluted by gradient with 1% BSA at 1:1 equal volume and incubated at 37° C. for […]. The mixture was added to a pre-coated ST2 plate and incubated at 37° C. for 1 h. The plate was washed with PBST for 3 times. HRP-labeled streptavidin secondary antibody was added at 1:8000 and incubated at 37° C. for 0.5 hours. After washing the plate with PBST for 3 times, the plate was patted on the absorbent paper to remove residual droplets as far as possible. 100 μl TMB was added to each well, and the plate was placed at room temperature (20±5° C.) for 5 minutes away from light; 50 μl 2M H₂SO₄ terminating solution was added to each well to terminate the substrate reaction. OD values were read at 450 nm on the microplate reader.

Test [7] concerns the target T1, Human IL-33-his. Put plainly: ELISA as Example 9, IL-33-his-biotin on streptavidin plate.

Changes are numbered by the printed parent chain. Names and notes keep the numbering of the source.

B1: 864F3-ch1 (antibody, human IgG4 S228P, kappa, V domains shown)
VH: QVQLKESGPGLVAPSQSLSITCTVSGFSLTNYGVHWVRLPPGKGLEWLGVIRAGGSSDYNSALMSRLNIRKDNSKSQVFLEMNSLQTADTAMYYCARDHYFSNSYGGSPYWGQGTLVTVSA
VL: DIQMTQSPASQSASLGESVTITCLASQTIATWLAWYQQKPGKSPQLLIYAATRLADGVPSRFSGSGSGTEFSFKISSLQAEDFVIYYCQQLYNTPYTFGGGTKLEIKR
notes: Chimeric: murine variable regions on human IgG4 (S228P) and human kappa constant regions; also called chimeric antibody 864F3-ch1
Regarding B1, the EC50 with Human IL-33-his [1] stood at 0.127 nM. In the test with Human IL-33-his [2], this molecule returned a 50% inhibitory concentration (IC50) of 45.2 nM. Further, the “IC50 (read off the curve)” value in the test with Human IL-33-his [3] was around 6 nM.

B2: 871G1 (antibody, V domains shown)
VH: QVHLKESGPGLVAPSQSLSITCNVSGFSLSKYGVHWIRQTPGRGLDWLGVLRAGGTISYNSALMSRLSISEDISKSQVFLKMNDLQTDDSAIYFCARDHYYYSSFGGFASWGQGTLVTVSA
VL: DIQMTQSPASQSASLGESVTITCLASQTIGAWLAWYRQQPGKSPQLLIYAATRLADGVPSRFSGSGSGTKFSFKINNLQAEDFVIYYCQQLNSTPYTFGGGTRLEM
notes: Murine hybridoma antibody; also called murine antibody 871G1
As for B2, in the test with Human IL-33-his [4], the “IC50 of inhibition of IL-33-induced IL-6 expression in HUVEC cells” value turned out to be 1.66 nM and the “IC50 of inhibition of IL-33-induced IL-8 expression in HUVEC cells” value came to 0.16 nM. For the same molecule, the EC50 with Human IL-33-his [5] came to 0.14 nM. In the test with Cynomolgus IL-33-his, a half-maximal response (EC50) required 0.04 nM. In the test with Human IL-33-his [6], this molecule returned an IC50 of 0.74 nM.

B3: 871G1-ch (antibody, human IgG4 S228P, kappa, V domains shown)
VH: B2 VH
VL: DIQMTQSPASQSASLGESVTITCLASQTIGAWLAWYRQQPGKSPQLLIYAATRLADGVPSRFSGSGSGTKFSFKINNLQAEDFVIYYCQQLNSTPYTFGGGTRLEMRT
notes: Chimeric: human IgG4 (S228P) and human kappa constant regions; also called chimeric antibody 871G1-ch
As for B3, the figures for the concentration for a half-maximal effect (EC50) in the test with Human IL-33-his [7] and in the test with Human IL-33-his [1] were 0.255 nM and 0.178 nM, respectively. This molecule also registered an IC50 in the test with Human IL-33-his [2] of 0.853 nM.

B4: 874F7-ch (antibody, human IgG4 S228P, kappa, V domains shown)
VH: QVQLKESGPGLVAPSHSLSITCNVSGFSLSKYGVHWIRQIPGRGLDWLGVLRAGGSTGYNSALMSRLSISKDSSKSQVFLKMNDLRTDDTAVYFCVRDHYYYSSYGGFVYWGQGTLVTVSA
VL: B3 VL with K70E, I85S, N92D, T94S
notes: Chimeric: human IgG4 (S228P) and human kappa constant regions; also called chimeric antibody 874F7-ch
Regarding B4, the values for the concentration giving a half-maximal response (EC50) with Human IL-33-his [7] and in the test with Human IL-33-his [1] were 0.177 nM and 0.144 nM, respectively. In the test with Human IL-33-his [2], this molecule had an IC50 of 0.634 nM.

One may read the EC50 as the concentration that produces a half-maximal response. Broadly, the IC50 is the concentration that gives 50% inhibition. Read a high IC50 as a need for much substance.
